Results as given in patent publication US20260049134A1 (UNIVERSITY OF FLORIDA RESEARCH FOUNDATION, published 2026).

Columns and labels:
[1] = target: T1, PTPRG, endogenous in H929 multiple myeloma cells (human, UniProt P23470 20-1445); assay: flow cytometry, H929 + PTPRG siRNA (target knocked down); None 490
T1 construct: Native protein on H929 cells (flow cytometry, siRNA knockdown) and in H929 lysates (IP/MS); also called phosphatase receptor type γ

[2] = target: T2, GARS-His (Sino Biological) (human, UniProt P41250 37-739, limits assumed); assay: ELISA on coated GARS-His
T2 construct: Bought; also called GARS1; glycyl-tRNA synthetase; not shown: His tag of the bought protein
T2 sequence: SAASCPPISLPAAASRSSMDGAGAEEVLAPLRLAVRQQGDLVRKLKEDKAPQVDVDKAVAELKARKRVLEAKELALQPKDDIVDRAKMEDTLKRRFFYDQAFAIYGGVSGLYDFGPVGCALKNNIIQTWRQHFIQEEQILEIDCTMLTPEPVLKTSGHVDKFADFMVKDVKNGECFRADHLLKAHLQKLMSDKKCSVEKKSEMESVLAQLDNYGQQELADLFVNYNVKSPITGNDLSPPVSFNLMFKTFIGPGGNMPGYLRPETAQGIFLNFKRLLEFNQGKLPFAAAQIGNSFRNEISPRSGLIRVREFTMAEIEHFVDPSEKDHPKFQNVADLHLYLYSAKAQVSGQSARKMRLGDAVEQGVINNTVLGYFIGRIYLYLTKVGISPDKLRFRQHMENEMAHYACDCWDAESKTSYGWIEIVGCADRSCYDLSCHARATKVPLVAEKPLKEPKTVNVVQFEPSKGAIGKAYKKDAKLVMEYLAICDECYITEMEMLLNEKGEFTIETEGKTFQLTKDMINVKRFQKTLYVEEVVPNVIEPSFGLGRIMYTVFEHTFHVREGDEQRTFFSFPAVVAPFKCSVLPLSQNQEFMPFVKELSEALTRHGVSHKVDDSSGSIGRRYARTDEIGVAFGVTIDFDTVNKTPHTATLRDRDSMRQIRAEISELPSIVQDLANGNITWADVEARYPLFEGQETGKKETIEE
Procedure: (§1) Recombinant purified ECDs (50-150 ng) of each putative target protein were coated, incubated with 150 ng of the indicated primary antibody, and binding was detected using a peroxidase-conjugated anti-human Fab secondary antibody. Heatmap represents averages of technical triplicates. (8B) Target validation via siRNA knockdown. H929 cells were transfected with siRNA pools targeting the putative antibody targets ICAM1, CADM1, and PTPRG. Cells were then subjected to cognate IgG binding analysis via flow cytometry. (NT, non-targeting siRNA).
ELISA ELISA was conducted as described previously. Briefly, 50-150 ng of antigen was coated overnight in half-area 96-well plates at 4° C., blocked with 3% BSA at 37° C. for 1 h, and 150 ng of chimeric rabbit/human IgG1 was added, incubating for 2 h at 37° C. […] After incubating at 37° C. for 15 min-1 h (depending on intensity of controls), data were acquired using a SpectraMax M5 plate reader (Molecular Devices).

[3] = target: T1, PTPRG, endogenous in H929 multiple …; assay: flow cytometry, H929 + PTPRG siRNA (target knocked down); None 2.13
Procedure: as §1
(§2) Staining protocol. Cells were harvested (5×10⁴ cells per sample), washed once with phosphate-buffered saline (PBS) at RT, and a second time with ice-cold FACS buffer (PBS, 0.5% BSA, 2 mM EDTA, 0.1% NaN₃). Cells were stained in 50 μL of primary antibody for 30 min on ice, washed twice with 100 μL FACS buffer, stained with 50 μL of diluted secondary antibody, washed two more times in FACS, and then resuspended in 50 μL FACS buffer. Samples were acquired on an Accuri C6 Plus or a BD FACSCanto II flow cytometer (both from BD Biosciences). Data were analyzed using FlowJo version 10 software. Primary antibodies: Fab (10 μg/mL), IgG1 (0.1 to 50 μg/mL), or 25 μL polyclonal Fabs from periplasmic extracts. Polyclonal Fabs were produced by diluting bacterial stocks by a factor of 100 in autoinduction media and incubating overnight to induce expression as previously described. […] Viability stains: DAPI (Cell Signaling Technology) or SYTOX AADvanced Dead Cell Stain (Thermo Fisher Scientific). Labeling: The panel of chimeric rabbit/human IgG1s was labeled using the Alexa Fluor 647 Labeling Kit (Thermo Fisher Scientific, #A20173) to facilitate single-step staining. Competition: Unlabeled IgG1s were added at saturating concentrations of 60 μg/mL to block the target receptors, incubating on ice for 30 min, followed by the addition of an equal volume of the Alexa Fluor 647 labeled antibody at 2 μg/mL, and the mixture was incubated on ice for another 30 min.

[4] = target: T1, PTPRG, endogenous in H929 multiple …; assay: flow cytometry, H929 + ICAM1 siRNA; None 455
CADM1 on RPMI-8226 cells = target: T3, CADM1 on RPMI-8226 cells (human, UniProt Q9BY67); assay: flow cytometry, IgG1 on RPMI-8226 cells
T3 sequence (single chain, looked up): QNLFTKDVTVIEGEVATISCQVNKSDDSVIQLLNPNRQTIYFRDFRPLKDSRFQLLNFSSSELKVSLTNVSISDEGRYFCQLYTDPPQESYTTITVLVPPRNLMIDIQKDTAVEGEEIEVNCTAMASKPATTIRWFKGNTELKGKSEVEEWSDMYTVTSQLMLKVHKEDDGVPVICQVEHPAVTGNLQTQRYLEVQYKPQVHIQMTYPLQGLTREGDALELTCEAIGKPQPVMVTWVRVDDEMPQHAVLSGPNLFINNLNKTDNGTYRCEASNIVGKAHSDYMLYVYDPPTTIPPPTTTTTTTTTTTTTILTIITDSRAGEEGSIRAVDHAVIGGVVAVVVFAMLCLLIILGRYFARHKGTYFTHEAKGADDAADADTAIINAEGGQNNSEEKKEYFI
Procedure: as §2

[5] = target: T4, CADM1, endogenous in H929 multiple myeloma cells (human, UniProt Q9BY67 45-442); assay: flow cytometry, H929 + NT Green siRNA; None 1.35
T4 construct: Native protein on H929 cells (flow cytometry, siRNA knockdown) and in H929 lysates (IP/MS); RPMI-8226 cells were used for sorting with HW-97; also called IGSF4A
T4 sequence: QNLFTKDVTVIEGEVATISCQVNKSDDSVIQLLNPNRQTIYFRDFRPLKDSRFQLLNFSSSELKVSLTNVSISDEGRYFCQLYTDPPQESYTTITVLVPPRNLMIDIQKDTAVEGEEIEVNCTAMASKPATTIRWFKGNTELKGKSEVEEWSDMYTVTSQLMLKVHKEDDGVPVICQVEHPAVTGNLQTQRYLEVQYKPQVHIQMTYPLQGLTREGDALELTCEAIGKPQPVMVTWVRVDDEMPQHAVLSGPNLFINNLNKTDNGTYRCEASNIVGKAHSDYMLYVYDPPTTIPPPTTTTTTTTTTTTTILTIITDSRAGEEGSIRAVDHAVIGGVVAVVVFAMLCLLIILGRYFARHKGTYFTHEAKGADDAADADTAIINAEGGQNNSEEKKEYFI

[6] = target: T4, CADM1, endogenous in H929 multiple …; assay: flow cytometry, IgG1 on H929 cells
Procedure: as §2

T1 sequence (P23470 20-1445 limits assumed): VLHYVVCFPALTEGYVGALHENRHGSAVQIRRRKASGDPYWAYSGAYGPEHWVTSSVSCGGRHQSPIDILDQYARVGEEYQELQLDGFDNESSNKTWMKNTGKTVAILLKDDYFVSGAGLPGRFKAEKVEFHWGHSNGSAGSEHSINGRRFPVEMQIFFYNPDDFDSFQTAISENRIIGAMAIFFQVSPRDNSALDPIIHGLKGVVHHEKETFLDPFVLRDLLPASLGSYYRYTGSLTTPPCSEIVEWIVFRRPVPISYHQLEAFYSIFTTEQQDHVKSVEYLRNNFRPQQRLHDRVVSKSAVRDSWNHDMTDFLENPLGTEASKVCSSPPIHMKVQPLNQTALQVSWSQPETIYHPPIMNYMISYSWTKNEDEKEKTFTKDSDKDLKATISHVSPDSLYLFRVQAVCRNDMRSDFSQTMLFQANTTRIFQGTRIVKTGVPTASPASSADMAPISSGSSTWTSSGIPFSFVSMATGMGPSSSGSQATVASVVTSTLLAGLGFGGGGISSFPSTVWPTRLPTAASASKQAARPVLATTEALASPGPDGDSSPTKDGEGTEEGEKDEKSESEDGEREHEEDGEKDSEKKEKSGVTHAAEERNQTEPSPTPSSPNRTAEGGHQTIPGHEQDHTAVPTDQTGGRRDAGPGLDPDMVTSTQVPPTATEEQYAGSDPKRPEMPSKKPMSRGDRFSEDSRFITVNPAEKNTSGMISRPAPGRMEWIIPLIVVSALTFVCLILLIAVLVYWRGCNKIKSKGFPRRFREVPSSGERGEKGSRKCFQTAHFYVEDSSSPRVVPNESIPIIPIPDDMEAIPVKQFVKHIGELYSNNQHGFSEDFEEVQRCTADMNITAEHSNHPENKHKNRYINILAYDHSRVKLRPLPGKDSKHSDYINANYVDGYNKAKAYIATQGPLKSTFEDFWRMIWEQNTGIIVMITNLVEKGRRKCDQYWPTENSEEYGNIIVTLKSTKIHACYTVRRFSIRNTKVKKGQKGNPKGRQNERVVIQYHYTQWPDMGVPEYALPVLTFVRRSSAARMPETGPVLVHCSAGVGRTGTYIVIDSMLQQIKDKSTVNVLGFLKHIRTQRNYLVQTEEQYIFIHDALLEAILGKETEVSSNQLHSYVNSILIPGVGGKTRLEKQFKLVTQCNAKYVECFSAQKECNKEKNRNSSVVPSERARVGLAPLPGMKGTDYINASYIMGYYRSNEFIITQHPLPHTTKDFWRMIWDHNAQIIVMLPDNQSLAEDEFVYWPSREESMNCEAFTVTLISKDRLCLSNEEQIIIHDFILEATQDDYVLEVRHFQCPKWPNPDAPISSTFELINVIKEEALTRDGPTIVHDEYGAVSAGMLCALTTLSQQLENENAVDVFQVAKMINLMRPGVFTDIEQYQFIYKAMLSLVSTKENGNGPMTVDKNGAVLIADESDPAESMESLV

Binder	mAb binding (MFI) [1]	binding result [2]	Cells stained (%) [3]	mAb binding (MFI) [4]	antibody-bound positive cells (%) (CADM1 on RPMI-8226 cells)	Cells stained (%) [5]	antibody-bound positive cells (%) [6]	binding result (CADM1 on RPMI-8226 cells)
HW-42 chimeric rabbit-human IgG1 LA/LA/PG (antibody, V domains shown, Fc-silenced (L234A/L235A/P329G) IgG1, lambda; Alexa Fluor 647-labeled in single-step flow cytometry; Cluster C-1) VH: QSVKESEGGLFKPADTLTLTCTVSGFSLSSNEISWVRQAPGEGLEYIGIIDTGGRAYYAVWARSRSTITRNTNLNTVTLKMTSLTAADTATYFCARGGVDTEWYAFSSWGPGTLVTVPS VL: SFVLTQPASVQVNLGQTVSLTCTADTLSRRYASWYQQKPGQAPVLLIFRDTSRPSGVPDRFSGSSSGDTATLTISGAQAGDEADYYCATSDGSGSNYQYVFGGGTQLTVTG	649	no binding (tested: 150 ng IgG1 per well)	0.55%	12100				
HW-97 chimeric rabbit-human IgG1 LA/LA/PG (antibody, V domains shown, Fc-silenced (L234A/L235A/P329G) IgG1, lambda; Alexa Fluor 647-labeled in single-step flow cytometry; Prototype of cluster C-97) VH: QKQLVESGGRLVTPGTPLTLTCTVTGIDLSSHGMSWVRQAPGKGLEWIGVIYPSGSTWYASWARGRFTISKTSTTVDLKMTSLTTEDTATHFCARGDVGGADNNIWGPGTLVTVSS VL: SFVLTQPASVQVDLGQTVSLTCTAETLSRSYASWYQQKPGQAPVLLIYRDTSRPSGVPDRFSGSSSGNTATLTISGAQAGDEADYYCATSDGSGSSYQYVFGGGTQLTVTG					98.8%	98.1%	98.6%	
HW-17 chimeric rabbit-human IgG1 LA/LA/PG (antibody, V domains shown, Fc-silenced (L234A/L235A/P329G) IgG1, lambda; Alexa Fluor 647-labeled in single-step flow cytometry; Cluster C-1) VH: QSLGESRGRLVTPDETLTLTCTVSGIDLSSNAMSWVRQAPGEGLEWIGTINTGGRAYYASWAKGRFTISRTSTTVDLKMTSLTTEDTATYFCARERYSDGRAYDIWGPGTLVTISS VL: SFVLTQPASVQVNLGQTVSLTCTADTLSRRYASWYQQKPGQAPVLLIYTDSNRPSGIPDRFSGSSSGNTATLTISGAQAGDEADYYCATDDGSGSIYQYVFGGGTQLTVTG	1160		1.25%	28000				
HW-1 chimeric rabbit-human IgG1 LA/LA/PG (antibody, V domains shown, Fc-silenced (L234A/L235A/P329G) IgG1, lambda; Alexa Fluor 647-labeled in single-step flow cytometry; Prototype of cluster C-1) VH: QSLEESGGGLFKPTDTLTLTCTASGFSLGSSYAISWVRQAPGKELEWIGTIDSGRAYYARWAKSRSTITRNTNENTVTLKMTSLTAADTATYFCARDLIPTYSQDIWGPGTLVTISS VL: SFVLTQPASVQVNLGQTVSLTCTADTLSRRYASWYQQKPGQAPVLLIYRDTSRPSGVPDRFSGSSSGNTATLTISGAQAGDEADYYCATSDGSGNSYQYVFGGGTQLTVTS	1140		1.2%	24500				
HW-101 chimeric rabbit-human IgG1 LA/LA/PG (antibody, V domains shown, Fc-silenced (L234A/L235A/P329G) IgG1, lambda; Alexa Fluor 647-labeled in single-step flow cytometry; Cluster C-97) VH: QEQLVESGGRLVTPGTPLTLTCKASGFSLGKYDMSWVRQAPGKGLEWIGTIYAGSGSTWYASWAKGRFTISKTSTTVDLKMTSLTTEDTATYFCARDFLGVNSIWGPGTLVTISS VL: SFVLTQPASVQVNLGQTVSLTCTADTLSRSYASWYQQKPDQAPVLLIHRDTSRPSGVPDRFSGSNSGNTATLTISGAQAGDEADYYCATSDGSGSNFHFVFGGGTQLTVTG					97.6%	94.3%	95.3%	
HW-25 chimeric rabbit-human IgG1 LA/LA/PG (antibody, V domains shown, Fc-silenced (L234A/L235A/P329G) IgG1, lambda; Alexa Fluor 647-labeled in single-step flow cytometry; Cluster C-1) VH: QSLEESGGRLVTPGTPLTLTCTVSGFSLSSYAMGWVRQAPGKGLEWIGIIDSRGSTYYATWAKGRFTISKTSTTVDLKITSPTTEDTATYFCAREDSYYYDSFNLWGPGTLVTVSS VL: SFVLTQPASVQVNLGQTVSLTCTADTLSRRYASWYQQKPGQAPVLLIYRDTSRPSGVPDRFSGSSSGNTATLTISGAQAGDEADYYCATSDGSGSSYQCVFGGGTQLTVTG	839	no binding (tested: 150 ng IgG1 per well)	0.87%	11400				
HW-70 chimeric rabbit-human IgG1 LA/LA/PG (antibody, V domains shown, Fc-silenced (L234A/L235A/P329G) IgG1, lambda; Alexa Fluor 647-labeled in single-step flow cytometry; Cluster C-1) VH: QSLEESGGRLVTPGTPLTLTCTVSGFSLSSNAMSWVRQAPGKGLEWIGTIDGYGYTYYASWAKGRFTVSKTSTTVDLKITSPTTEDTATYFCAREIYLGSNFWGPGTLVTISS VL: SFVLTQPASVQVNLGQTVSLTCTADTLSRRYASWYQQKPGQAPVLLIYRDTSRPSGVPDRFSGSSSGNTATLTISGAQAGDEADYYCATADGSGSSYQFVFGGGTQLTVTG	840	no binding (tested: 150 ng IgG1 per well)	0.87%	17900				
TH9-0022 (antibody, human IgG1, kappa, L234A L235A, V domains shown, also called TH9-022; negative control) VH: QSLEESGGRLVTPGTPLTLTCTVSGFSLSSYAMNWVRQAPGKGLEWIGIINSYGSTYYASWAKGRFTISKTSTTVDLKITSPTTEDTATYFCARVTYDSYGYGYAPYGMDLWGPGTLVTVSS VL: LVMTQTPSSTSNAVGGTVTIKCQASQSIGNVLAWYQQKPGQPPKLLIYAASTLASGVPSRVGGSRSGTEYTLTISGVQREDAATYYCLGSDSDSDIAFGGGTELEILR		no binding (tested: 150 ng IgG1 per well)				1.86%		
TH9-0022 (antibody, human IgG1, kappa, L234A L235A, V domains shown, also called TH9-022; negative control IgG1) VH: QSLEESGGRLVTPGTPLTLTCTVSGFSLSSYAMNWVRQAPGKGLEWIGIINSYGSTYYASWAKGRFTISKTSTTVDLKITSPTTEDTATYFCARVTYDSYGYGYAPYGMDLWGPGTLVTVSS VL: LVMTQTPSSTSNAVGGTVTIKCQASQSIGNVLAWYQQKPGQPPKLLIYAASTLASGVPSRVGGSRSGTEYTLTISGVQREDAATYYCLGSDSDSDIAFGGGTELEILR					3%		2.7%	no binding
